# Reference: the supplement of paper PMC10126150
# ± gives the standard deviation of the averaged measurements.
# System: ATP
# Assay: switch fluorescence ratio, 500 uM ATP over buffer (Cy3 cluster intensity, sum of 5 cycles each) (fold (ratio)); higher = stronger signal-on switching upon ATP binding; sequences stand for … in TCGTCGGCAGCGTCAGATGTGTATAAGAGACAGTTTTTTTTTTTTTTTTTTTTTTTTT…TC
# Conditions: aptamer strand: ATP DNA aptamer (quencher-CACCTGGGGGAGTATTGCGGAGGAAGG + anchor), 100 nM annealed; ATP concentration: 500 uM
# In short: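 Cy3-labelled switching-strand clusters on a modified Illumina MiSeq flow-cell were annealed to 100 nM quencher-labelled ATP aptamer, imaged in selection buffer, then imaged after 15 min with 500 uM ATP at 22 °C. Five buffer/ATP cycles ran, with NaOH stripping and re-annealing between them. The fluorescence ratio is summed target-cycle over summed buffer-cycle Cy3 intensity per cluster, averaged per switch-domain sequence. Clusters outside 100-1000 RFU were excluded.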
# 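Note: ATP exposure 15 min at 22 °C before imaging.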
row,Sequence,switch fluorescence ratio
1,TTCAGCGGGT,0.983 ± 0.025
2,TTCAGCTGGG,0.998 ± 0.022
3,TTCAGGATAC,1.19 ± 0.043
4,TTCAGGATGT,1 ± 0.025
5,TTCAGGATTT,0.994 ± 0.038
6,TTCAGGCACG,0.986 ± 0.049
7,TTCAGGGAGG,1 ± 0.033
8,TTCAGGGGGT,1.02 ± 0.054
9,TTCAGGGTTC,0.966 ± 0.027
10,TTCAGTGTTT,0.993 ± 0.023
11,TTCATAGGGG,0.988 ± 0.015
12,TTCATAGGTT,1.02 ± 0.012
13,TTCATAGTGA,0.95 ± 0.028
14,TTCATATTCA,1.01 ± 0.023
15,TTCATCGGCT,1.34 ± 0.51
16,TTCATCGGTT,0.9922 ± 0.0022
17,TTCATGTCAT,1.01 ± 0.081
18,TTCATTCATT,0.982 ± 0.015
19,TTCATTGTCG,0.929 ± 0.062
20,TTCATTGTTA,1.03 ± 0.049
21,TTCATTTTG,1.01 ± 0.068
22,TTCCAAACGG,0.989 ± 0.014
23,TTCCAAATTG,0.993 ± 0.017

row,Sequence,switch fluorescence ratio
1,TTCCAAGATC,1.18 ± 0.12
2,TTCCAAGGGT,1.76 ± 1.5
3,TTCCAATTTG,1 ± 0.014
4,TTCCACATTT,1.12 ± 0.16
5,TTCCACGACT,1.02 ± 0.025
6,TTCCAGCGGT,1.03 ± 0.017
7,TTCCAGCTTT,1.02 ± 0.024
8,TTCCAGGAGC,0.946 ± 0.091
9,TTCCAGGCGT,1.23 ± 0.055
10,TTCCAGTATT,1.05 ± 0.049
11,TTCCATATCG,1.03 ± 0.061
12,TTCCATATTT,1.02 ± 0.026
13,TTCCATGGTC,1.02 ± 0.014
14,TTCCATGTGT,1.06 ± 0.044
15,TTCCATGTTT,1.06 ± 0.11
16,TTCCATTTGC,1.05 ± 0.074
17,TTCCCACCGT,1.06 ± 0.031
18,TTCCGACGAT,3.15 ± 2.3
19,TTCCGGATTA,1.07 ± 0.065
20,TTCCGGCAAA,1.5 ± 0.7
21,TTCCGGCTTT,1.01 ± 0.033
22,TTCCGGGCCG,1.03 ± 0.037
23,TTCCGGGCTT,1.41 ± 0.38

row,Sequence,switch fluorescence ratio
1,TTCCGGGGGC,1.61 ± 0.98
2,TTCCGGGTAC,3.27 ± 0.22
3,TTCCGGTAAC,2.07 ± 0.13
4,TTCCGGTGAA,1.0572 ± 0.00078
5,TTCCGTGGGA,1.06 ± 0.045
6,TTCCGTTTTT,1.51 ± 0.66
7,TTCCTATGTT,0.991 ± 0.056
8,TTCCTCAGAC,1.6 ± 0.87
9,TTCCTGAAAA,0.981 ± 0.016
10,TTCCTGCGCT,1.77 ± 1
11,TTCCTGGTGG,1.05 ± 0.073
12,TTCCTGTTTC,1.01 ± 0.023
13,TTCCTTCATT,1.04 ± 0.016
14,TTCCTTGTTA,0.9973 ± 0.0052
15,TTCCTTTGGG,0.964 ± 0.019
16,TTCGAAGGGC,1.14 ± 0.16
17,TTCGAGAAGG,0.972 ± 0.018
18,TTCGAGGTGC,1.04 ± 0.05
19,TTCGAGTCGG,0.967 ± 0.011
20,TTCGAGTTTT,0.9669 ± 0.00099
21,TTCGATATTT,0.982 ± 0.017
22,TTCGATGATA,1.07 ± 0.08
23,TTCGATGGGG,0.993 ± 0.048

row,Sequence,switch fluorescence ratio
1,TTCGATGTGG,1.01 ± 0.018
2,TTCGATTACG,1.03 ± 0.018
3,TTCGCGACTT,0.987 ± 0.029
4,TTCGCGGGTG,1.05 ± 0.025
5,TTCGCTCGAG,1 ± 0.017
6,TTCGCTCTTT,1.06 ± 0.025
7,TTCGCTGTTC,1.28 ± 0.027
8,TTCGCTTTTT,0.991 ± 0.032
9,TTCGGAGGAG,1 ± 0.012
10,TTCGGAGGAT,1.02 ± 0.048
11,TTCGGAGGCT,1.23 ± 0.3
12,TTCGGATAAT,0.98 ± 0.011
13,TTCGGCCCCA,0.99 ± 0.031
14,TTCGGCGCCA,1.03 ± 0.013
15,TTCGGCGGTG,0.98 ± 0.045
16,TTCGGGAACA,1.02 ± 0.038
17,TTCGGGACGC,1.03 ± 0.053
18,TTCGGGATTT,1.007 ± 0.0062
19,TTCGGGGAAT,0.982 ± 0.034
20,TTCGGGGACG,0.969 ± 0.052
21,TTCGGGGATG,0.991 ± 0.048
22,TTCGGGGGAG,0.979 ± 0.026
23,TTCGGGGGCA,1.01 ± 0.052

row,Sequence,switch fluorescence ratio
1,TTCGGGGGGC,0.961 ± 0.039
2,TTCGGGGTTC,1.0029 ± 0.00079
3,TTCGGTACGT,0.999 ± 0.0024
4,TTCGGTCACC,1.014 ± 0.0054
5,TTCGGTGAAG,1.01 ± 0.0051
6,TTCGGTGTGG,1.01 ± 0.04
7,TTCGGTTATA,0.986 ± 0.053
8,TTCGGTTGGT,1.01 ± 0.029
9,TTCGGTTTGC,1.02 ± 0.066
10,TTCGGTTTGT,0.98 ± 0.032
11,TTCGTAAGTT,0.99485 ± 0.00084
12,TTCGTAGGCA,1.02 ± 0.042
13,TTCGTATACC,0.988 ± 0.051
14,TTCGTATAGC,1.03 ± 0.036
15,TTCGTCAGGA,0.978 ± 0.036
16,TTCGTCAGTG,0.986 ± 0.013
17,TTCGTGAATT,1.11 ± 0.1
18,TTCGTGCTTC,0.963 ± 0.024
19,TTCGTGGGGC,1.18 ± 0.21
20,TTCGTGGTGT,1.03 ± 0.015
21,TTCGTGGTTG,0.967 ± 0.034
22,TTCGTGTGGC,0.932 ± 0.02
23,TTCGTGTTAC,1.32 ± 0.26

row,Sequence,switch fluorescence ratio
1,TTCGTGTTCT,1 ± 0.03
2,TTCGTTAGAA,1.0091 ± 0.00067
3,TTCGTTCGAA,1.03 ± 0.067
4,TTCGTTTGGG,0.967 ± 0.047
5,TTCGTTTTCG,0.991 ± 0.029
6,TTCGTTTTGG,1.01 ± 0.038
7,TTCGTTTTTC,0.956 ± 0.035
8,TTCTAAAAAT,1.06 ± 0.023
9,TTCTACACAG,1.04 ± 0.032
10,TTCTAGCTAT,1.58 ± 0.78
11,TTCTAGGGGT,0.966 ± 0.012
12,TTCTATACCG,0.982 ± 0.036
13,TTCTATTCGA,1.008 ± 0.0058
14,TTCTCGGACG,0.991 ± 0.017
15,TTCTCGGGCT,0.994 ± 0.031
16,TTCTCGGGTT,0.99 ± 0.023
17,TTCTCGTTGG,1.02 ± 0.032
18,TTCTCTGGGG,1.025 ± 0.0071
19,TTCTGATTAT,1 ± 0.035
20,TTCTGCGTGC,1.85 ± 1.5
21,TTCTGGATCC,1.02 ± 0.043
22,TTCTGGCTAT,1.01 ± 0.039
23,TTCTGGGACT,0.999 ± 0.021

row,Sequence,switch fluorescence ratio
1,TTCTGGGCGG,1.02 ± 0.032
2,TTCTGGGGAT,1.009 ± 0.0014
3,TTCTGGGGGC,1.05 ± 0.064
4,TTCTGGTATA,1.02 ± 0.024
5,TTCTGGTTAC,1.059 ± 0.004
6,TTCTGTCCAC,1.03 ± 0.013
7,TTCTGTGGCG,1 ± 0.069
8,TTCTGTGTTT,1.01 ± 0.037
9,TTCTGTTCGC,1.03 ± 0.025
10,TTCTGTTGGT,1.02 ± 0.087
11,TTCTGTTTCT,0.995 ± 0.011
12,TTCTTAGCAC,1.58 ± 0.17
13,TTCTTAGCTT,0.998 ± 0.019
14,TTCTTATTGT,0.975 ± 0.019
15,TTCTTCCTTT,1.028 ± 0.0051
16,TTCTTGCGCC,1.076 ± 0.0073
17,TTCTTGGACA,0.993 ± 0.016
18,TTCTTGTGGG,1.05 ± 0.057
19,TTCTTGTGTG,1 ± 0.041
